The data set is described as follows: yeast display, Sf9 membrane polyspecificity reagent, FACS + sequencing; frameworks hold sequencing errors. In short, it runs like this:
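A synthetic nanobody library was expressed on Saccharomyces cerevisiae BJ5465 by galactose induction for 36–48 hours. The library was stained for 1 hour at 4 °C with 10% biotinylated, detergent-solubilized Sf9 membrane reagent and enriched with streptavidin microbeads before FACS. Low and high (top ~1%) gates were set on anti-HA fluorescence for expression and streptavidin fluorescence for reagent binding, and each polyreactivity label reflects the gate of origin.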
For the sequence “QVQLVESGGGLVQAGGSLRLSCAASGSTIRFYYMGWYRQEPGKERELVAAITGIGDSTYYSDSVKGRFTISRDNAKNSVYLQMNSLKPEDTAVYYCAAERYYYTARLRYWRYFWGQGTQVTVSS”, the “polyreactivity (PSR sort gate)” value is recorded as “high polyreactivity”. Then “QVQLVESGGGLVQAGGSLRLSCAASGSTIRNYAMGWYRQAPGKERELVAAISSGGRTYYADSVKGRFTISRDNAKNTVYLQMNSLKPEDTAVYYCNTPYTVRGRYTYDYWGQGTQVTVSS”, with “high polyreactivity”; and “QVQLVESGGGLVQAGGSLRLSCAASGSTIRTNTMGWYRQAPGKERELVAAITKSGGSTYYADSVKGRFTISRDNAKNTVYLQMNSLKPEDTAVYYCAARVLYRSGLRGDYWGQGTQVTVSS”, with “high polyreactivity”; and “QVQLVESGGGLVQAGGSLRLSCAASGSTIRYYAMGWYRQAPGKEREFVAAITRSGGRTYYADSVKGRFTISRDNAKNTVYLQMNSLKPEDTADYYCAKVLYSPIGKYDYWGQGTQVTVSS”, with “high polyreactivity”.

In the case of “QVQLVESGGGLVQAGGSLRLSCAASGSTIRYYAMGWYRQAPGKERQLVAYITTSGGTYYADSVKGRFTISRDNAKNTVYLQMHSLKPEDTAVYYCAARRQDYTYYRIYHFDYWGQGTQVTVSS”, the “polyreactivity (PSR sort gate)” value is recorded as “high polyreactivity”. Then “QVQLVESGGGLVQAGGSLRLSCAASGSTISINALGWSRQAPGKERELVAAITGGDTNTYYADSVKGRFTISRDTAKNTVYLLMNSLKPEDTAVYYCNARIYDYAGAGTWSYDSWGQGTQVTVSS”, with “low polyreactivity”. As for “QVQLVESGGGLVQAGGSLRLSCAASGSTISPNSMGWYRQAPGKERELVAAISSDASTNYADSVKGRFTISRDNAKNTVYLQRNCLTPDDTALYYCAADLWTLIYLTDTYGHWGQGTQVTVSS”, the “polyreactivity (PSR sort gate)” value is on record as “low polyreactivity”. For “QVQLVESGGGLVQAGGSLRLSCAASGSTISRNAMGWYRQAPGKERELVAAITSRSGRTYYADSVKGRFTISRDNAKNTVYLQMNSLKPEDTAVYYCAATVYQGAYTYQFYWGQGTQVTVSS”, the “polyreactivity (PSR sort gate)” value is “high polyreactivity”. With “QVQLVESGGGLVQAGGSLRLSCAASGSTISYYAMGWYRQAPGKERELVAAISSRGVITYYADSVKGRFTISRDNAKNTVYLQMNSLKPEDTAVYYCNVDSAWYPYETEDYWGQGTQVTVSS” the entry was “low polyreactivity”; with “QVQLVESGGGLVQAGGSLRLSCAASGSTITSYAMRLYRQAPGKDRELVASISRSGGRTYYADSVKGRFTISRDNAKNTVYLQMNSLKPEDTAVYYCAADDYSATTRYYYWGQGTQVTVSS”, “high polyreactivity”; with “QVQLVESGGGLVQAGGSLRLSCAASGSTITYYTMGWYRQAPGKERELVAAISGSGGRTYYADSVKGRFTISRDNEKNTVYLQMNSLKPEDTAVYYCAAVYQLSRYDYWGQGTQVTVSS”, “high polyreactivity”. For “QVQLVESGGGLVQAGGSLRLSCAASGSTIVPNTMGWYRQAPGKERELVAGITSGGSTYYADSVKGRFTISRDNAKNTVYLQMNSLKPEDTAVYYCAADDGSTANEKLIHEYNYWGQGTQVTVSS”, the “polyreactivity (PSR sort gate)” value is reported as “low polyreactivity”. With “QVQLVESGGGLVQAGGSLRLSCAASGSTIVVNAMGWYRQAPGKERELVAAISSNGGSYYADSVKGRFTISRDNAKNTVYLQMNSLKPEDTAVYYCAADSREEGDYWGQGTQVTVSS” the entry was “low polyreactivity”. With “QVQLVESGGGLVQAGGSLRLSCAASGSTIWSNAMVWYRQAPGKERELVAVISGGTSTNYADSVKGRFTISRDNAKNTVYLQMNSLKPEDTAVFYCAADWGSYLILINDTDMDYWGQGTQVTVSS” the entry was “low polyreactivity”; with “QVQLVESGGGLVQAGGSLRLSCAASGSTIYDNAMGWYRQAPGKERELVAAITWSVGRTYYADSVKGRFTISRDNAKNTVYLQMNSLKPEDTAVYYCAARSQDRSYFQVFVSDTPYNYWGQGTQVTVSS”, “low polyreactivity”; with “QVQLVESGGGLVQAGGSLRLSCAASGSTIYGYAMGSYRQAPGKERELVAAISISGGGTYYADSVKGRFTISRDNAKNTVYIQMNSLKPEDTAVYYCARRYFWGQGTQVTVSS”, “low polyreactivity”. On to “QVQLVESGGGLVQAGGSLRLSCAASGSTLAKYAMGWYRQAPGKERELVAAISWSGGRTYYADSVKGRFTISRDNAKNTVYLQMNSLKPEDTAVYYCAARARSSRTYHDDYWGQGTQVTVSS”, for which the “polyreactivity (PSR sort gate)” value was “high polyreactivity”. Turning to “QVQLVESGGGLVQAGGSLRLSCAASGSTLALYAMGWYRQAPGKERELVAVITSGGSTDYADSVKGRFTISRDNAKNTVYLQMNSLKPEDTAVYYCAAEGRPGKYSYVYWGQGTQVTVSS”, the “polyreactivity (PSR sort gate)” value was “low polyreactivity”. With “QVQLVESGGGLVQAGGSLRLSCAASGSTLATYTMGWYRQAPGKERELVAAISFGGSTYYADSVKGRFTISRDNAKNTVYLQMNSLKPEDTAVYYCAVYGDSYWGASYYSDGYWGQGTQVTVSS” the entry was “low polyreactivity”; with “QVQLVESGGGLVQAGGSLRLSCAASGSTLDGNTMGWYRQAPGKERELVAAISRSGTSTYYADSVKGRFTISRDNAKNTVYLQMNSLKPEDTAVYYCNAEASDLYYVYLEYDYWGQGTQVTVSS”, “low polyreactivity”. With “QVQLVESGGGLVQAGGSLRLSCAASGSTLDRNTMGWYRQAPGKERELVAAITWSGGRTYYADSVKGRFTITRDNAKNTVYLQMNSLKPEDTAVYYCNKDYWKRPVDEYDYWGQGTQVTVSS” the entry was “high polyreactivity”; with “QVQLVESGGGLVQAGGSLRLSCAASGSTLDYYAIGWYRQAPGKEREFVAGIDSAGSTNYADSVKGRFTISRDNAKNTVYLQMNSLKTGRYRGLYCNVGKTITTYAFPTFDYWGQGTQVTVSS”, “low polyreactivity”; with “QVQLVESGGGLVQAGGSLRLSCAASGSTLEPNAMGWYRQAPGKERELVAAITIGGSTYYADSVKGRFTISRDNAKNTVYLQMNSLKPEDTAVYYCAAKSTVQRRRHTNYDYWGQGTQVTVSS”, “high polyreactivity”.

Turning to “QVQLVESGGGLVQAGGSLRLSCAASGSTLFDYTMGWYRQAPGNVRELVAAISSSGITDYADSVKGRFTISRDNAQNTVYLQMNSLKPDETAVYYCNARSQKATRYDYWGQGTQVTVSS”, the “polyreactivity (PSR sort gate)” value is “high polyreactivity”. Then “QVQLVESGGGLVQAGGSLRLSCAASGSTLFTYAMGWYRQAPGKERELVAAITSSGSTYYADSVKGRFTISRDNAKNTVYFQMNSLKPEDTAVYYCAVPGYRYTKYYYWGQGTQVTVSS”, with “low polyreactivity”; and “QVQLVESGGGLVQAGGSLRLSCAASGSTLGFNAMGWYRQAPGKEREFVAGISASGSSTYYADSVKGRFTISRDNAKNTVYLQMNSLKPEDTAVYYCAARASGGPYWSRGKYWGQGTQVTVSS”, with “high polyreactivity”. Then “QVQLVESGGGLVQAGGSLRLSCAASGSTLGVNAMGRYRQAPGKEREFVAAITGRGGNSYYADSVKGRFTISRDNAKNTVYLKMNSLKPEDTAVYYCAAERQPYRTSSYNYWGQGSQVTVSS”, with “high polyreactivity”; and “QVQLVESGGGLVQAGGSLRLSCAASGSTLGVYAMGWYRQAPGTERELVAAISSGGSTTYADSVKGRFTISRDNEKNTVYLQMNSLKPEDTAVYYCAADRYEGYVTWYWWGAYNYDYWGQGTQVTVSS”, with “high polyreactivity”. Then “QVQLVESGGGLVQAGGSLRLSCAASGSTLGVYVMGWYRPAPGKERELVAAISRNGGSTYYADSVKGRFTISRDNAMNTVYLQMNSLKPEDTAVYYCAARTVGRKAGFDYWGQGTQVTVSS”, with “high polyreactivity”. Take “QVQLVESGGGLVQAGGSLRLSCAASGSTLGYYAMGWYRQAPGKERELVAAIRYSDGNTYYADSVKGRFTISRDNAKNTVYLQMNSLKPEDTAVYYCAARRGRSFRGVFYPFEYWGQGTQVTVSS”: the “polyreactivity (PSR sort gate)” value was “high polyreactivity”.
